Experiment [1] addresses Human IL-17RA full-length expressed on the surface of cells (human, UniProt Q96F46 33-866). Kind of experiment: cell-based or functional assay.
The next experiment concerns the target T1, huIL-17RA-FLAG-polyHis (human, UniProt Q96F46 33-320).
T1 construct: also called wild-type IL-17RA-FLAG-polyHis; HuIL-17RA-Flag-pHis
Kind of experiment: multiplexed Luminex binning.

The target in another experiment is T2, chimera L.
T2 construct: also called Construct L; B+F
Kind of experiment: Bio-Plex titration on His-captured chimera; bold cell = binding criterion not met.

Experimental for chimera L: Twelve bead codes of pentaHis-coated beads (Qiagen, Valencia, Calif.; see www1.qiagen.com) were used to capture histidine-tagged protein. The 12 bead codes allowed the multiplexing of 11 chimeric and the wild type human IL-17RA.
To prepare the beads, 100 ul of wild-type IL-17RA supernatant from transient expression culture and 100 ul of 2.5 ug/ml chimeric protein were bound to penta-His-coated beads overnight at 4° C. or 2 hours at room temperature with vigorous shaking. The beads were washed as per the manufacturer's protocol and the 12 bead set was pooled and aliquoted into 2 or 3 columns of a 96-well filter plate (Millipore, Billerica, Mass., product #MSBVN1250) for duplicate or triplicate assay points, respectively. 100 ul anti-IL-17RA antibodies in 4-fold dilutions were added to the wells, incubated for 1 hour at room temperature, and washed. […] Beads were resuspended in 1% BSA, shaken for 3 minutes, and read on the Bio-Plex workstation. Antibody binding to IL-17RA chimeric protein was compared to antibody binding to the human IL-17RA wild-type from the same pool. A titration of antibody over approximately a 5 log scale was performed. Median Fluorescence Intensity (MFI) of chimeric proteins was graphed as a percent of maximum wild-type human IL-17RA signal.
Experimental for huIL-17RA-FLAG-polyHis: Cross-competition studies were performed to determine IL-17RA binding characteristics of exemplary IL-17RA antibodies. […] The method employed the Bio-Plex Workstation and software (BioRad, Hercules, Calif.), as well as reagents from Luminex® Corp. (Austin, Tex.). The manufacturers' basic protocols were followed except where noted below (see www.bio-rad.com and www.luminexcorp.com for details). […] The mouse-anti-human IgG coating was evaluated and the beads quantified by FACS. Each bead code was separately incubated with 10 ul of anti-IL-17RA antibody for 1 hour at room temperature and then washed. The beads were pooled and then dispensed to a 96-well filter plate (Millipore, Billerica, Mass., product #MSBVN1250). […] The PE-tagged monovalent antibody will detect the presence of the second mAb added to the well, but not the first mAb captured by the monovalent mouse-anti-human IgG antibody. Beads were resuspended in 120 ul PBSAT and at least 100 events/bead code were collected on the Bio-Plex workstation as per the manufacturer's recommended protocol.

B1: AMH13/AML13 (antibody, IgG2, V domains shown)
VH: QVQLVESGGGVVQPGRSLRLSCAASGFTFSSYGMQWVRQAPGKGLEWVAVIWYDGNKKYYADSVKGRFTISRDNSKNTLYLQMNSLRAEDTAVYYCARGRVRDYYYGMDVWGQGTTVTVSS
VL: DIVMTQTPLSLSVTPGQPASIACKSSQSLLHSDGKTYLYWYLQKPGQPPQLLIYEVSTRFSGVPDRFSGSGSGTDFTLKISRVEAEDVGVFYCMQSIQLPLTFGGGTKVEIK
Consider B1, for which, in experiment [1], the “IL-17A/HFF bioassay IC50; 13. Subclone of (AMH13/AML13)” value is > 10 nM.

B2: AMH4/AML4 (antibody, IgG2, V domains shown)
VH: QVQLVESGGGVVQPGRSLRLSCAASGINFSSYGMHWVRQAPGKGLEWVAVIWYDGSNKHYADSVKGRFTISRDNSKNTLYLQMNSLRAEDTAVYYCARDTGVYWGQGTLVTVSS
VL: not shown
notes: human monoclonal antibody from IgG2 XenoMouse mice; also called AM-4
Consider B2, for which, in the experiment with huIL-17RA-FLAG-polyHis, the binding result is on record as “binds”.

B3: AMH10/AML10 (antibody, IgG2, V domains shown)
VH: QVQLQESGPGLVKPSQTLSLTCTVSGGSISSGGYYWSWIRQHPGKGLEWIGYIYFSGSAYYNPSLKSRVAISVDTSKNQFSLKLSSVTAADTAVYYCAREYYDSSGYPDAFDIWGQGTMVTVSS
VL: DIQMTQSPSSVSASVGDRVTITCRASQGIRSWLAWYQQKPGKAPKLLIFAASSLQSGVPSRFSGSGSGTEFTLTISSLQPEDFATYYCQQANNFPRTFGQGTKVEIK
notes: human monoclonal antibody from IgG2 XenoMouse mice; also called AM-10
For the molecule B3, the binding result with huIL-17RA-FLAG-polyHis is “binds”.

B4: AMH7/AML7 (antibody, IgG2, V domains shown)
VH: QVQLVQSGAEVKKPGASVKVSCKASGYTLTRYGISWVRQAPGQGLEWMGWISAYNGNTNYAQKLQGRVTMTTDTSTSTAYMELRSLRSDDTAVYYCARRDYDILTGYYNGFDPWGQGTLVTVSS
VL: DIQMTQSPSSLSASVGDRVTITCRASQGIRNDLGWYQQKPGKAPKRLIYAASSLQSGVPSRFSGSGSGTEFTLTISSLQPEDFATYYCLQHKSYPLTFGGGTKVEIK
notes: human monoclonal antibody from IgG2 XenoMouse mice; also called AM-7
For B4, the binding result with huIL-17RA-FLAG-polyHis was “binds”.

B5: AMH6/AML6 (antibody, IgG2, V domains shown)
VH: QVQLVQSGAEVKKPGASVKVSCKASGYTLTRYGISWVRQAPGQGLEWMGWISAYNGNTNYAQKLQGRVTMTTDTSTSTAYMELRSLRSDDTAVYYCARRDYDILTGYYNGFDPWGQGTLVTVSS
VL: DIQMTQSPSSLSASVGDRVTITCRASQGIRNDLGWYQQKPGKAPKRLIYAASSLQSGVPSRFSGSGSGTEFTLTISSLQPEDFATYYCLQHKSYPLTFGGGTKVEIK
notes: human monoclonal antibody from IgG2 XenoMouse mice; also called AM-6
On to B5, for which the binding result with huIL-17RA-FLAG-polyHis is “binds”.

B6: AMH8/AML8 (antibody, IgG2, V domains shown)
VH: QVQLVQSGAEVKKPGASVKVSCKASGNTFTGYGISWVRQAPGQGLEWMGWISAYNGNTNYAQNLQGRVTMTTDTSTSTAYMELRSLRSDDTAVYYCARRDYDILTGYYNGFDPWGQGTLVTVSS
VL: DIQMTQSPSSLSASVGDRVTITCRASQGIRNDLGWYQQKPGKAPKRLIYAASSLQSGVPSRFSGSGSGTEFTLTISSLQPEDFATYYCLQHKSYPLTFGGGTKVEIK
notes: human monoclonal antibody from IgG2 XenoMouse mice; also called AM-8
In the case of B6, the binding result in the experiment with huIL-17RA-FLAG-polyHis is recorded as “binds”.

B7: AMH21/AML21 (antibody, IgG2, V domains shown)
VH: EVQLVESGGGSVQPGGSLRLSCAASGFTFSSYSMNWVRQAPGKGLEWVSIISSRSSIIHYADSVKGRFTISRDNAKNSLYLQMNSLRDEDTAVYYCARPKVGGGMDVWGQGTTVTVSS
VL: DIQMTQSPSSLSASVGDRVTITCRASQGISNYLAWYQQKPGKFPELLIYAASTLQSGVPSRFSGSGSGTDFTLTISSLQPEDVATYYCQKYNRAPFTFGPGTKVDIK
Regarding B7, in experiment [1], the “IL-17A/HFF bioassay IC50; 4. Subclone of (AMH21/AML21)” value amounted to 2.3 nM, the “IL-17A/HFF bioassay IC50; 5. Subclone of (AMH21/AML21)” value came to 3.1 nM and the “IL-17A/HFF bioassay IC50; 6. Subclone of (AMH21/AML21)” value was determined as 3.3 nM.

B8: AMH20/AML20 (antibody, IgG2, V domains shown)
VH: EVQLVESGGGLVQPGGSLRLSCAASGFTFSSYSMNWVRQAPGKGLEWVSFISARSSTIYYADSVKGRFTISRDNAKNSLYLQMNSLRDEDTAVYYCARPKVGGGMDVWGQGTTVTVSS
VL: DIQMTQSPSSLSASVGDRVTITCRASQGISNYLAWYQQKPGKFPELLIYAASTLQSGVPSRFSGSGSGTDFTLTISSLQPEDVATYYCQKYNRAPFTFGPGTKVDIK
For the molecule B8, in experiment [1], the “IL-17A/HFF bioassay IC50; 7. Subclone of (AMH20/AML20)” value was found to be 8.1 nM, the “IL-17A/HFF bioassay IC50; 8. Subclone of (AMH20/AML20)” value stood at 6.6 nM and the “IL-17A/HFF bioassay IC50; 9. Subclone of (AMH20/AML20)” value was determined as 6.7 nM.

B9: AMH17/AML17 (antibody, V domains shown)
VH: QVQLVQSGAEVKKPGAAVKVSCKATGYTLTSYGISWVRQAPGQGLEWMGWISAYSGNTKYAQKLQGRVTMTTDTSTSTAYMELRSLRSDDTAVYYCARKQLVFDYWGQGTLVTVSS
VL: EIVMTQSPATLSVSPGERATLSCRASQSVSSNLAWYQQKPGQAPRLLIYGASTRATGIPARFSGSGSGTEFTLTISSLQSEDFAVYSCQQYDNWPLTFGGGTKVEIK
Take B9: in experiment [1], the “IL-17A/HFF bioassay IC50; 21. Subclone of (AMH17/AML17)” value stood at 2.5 nM, the “IL-17A/HFF bioassay IC50; 22. Subclone of (AMH17/AML17)” value came to 5.3 nM and the “IL-17A/HFF bioassay IC50; 23. Subclone of (AMH17/AML17)” value worked out at 0.57 nM.

B10: AMH12/AML12 (antibody, IgG2, V domains shown)
VH: QVQLVQSGAEVKKPGASVKVSCKASGYTLTSYGISWVRQAPGQGLEWMGWISTYKGNTNYAQKLQGRVTMTTDTSTSTAYMELRSLRSDDTAVYYCARKQLVFDYWGQGTLVTVSS
VL: EIVMTQSPATLSVSPGERATLSCRASQSISSSLAWYQQKPGQAPRLLIYGASTRATGIPARFSGSGSGTEFTLTISSLQSENFAVYYCQQYDNWPLTFGGGTKVEIK
Regarding B10, in experiment [1], the “IL-17A/HFF bioassay IC50; 17. Subclone of (AMH12/AML12)” value came to 3.5 nM, the “IL-17A/HFF bioassay IC50; 18. Subclone of (AMH12/AML12)” value is 3.7 nM and the “IL-17A/HFF bioassay IC50; 20. Subclone of (AMH12/AML12)” value came out at 5.5 nM.

B11: AMH19/AML19 (antibody, IgG2, V domains shown)
VH: QVQLVQSGAEVKKPGASVKVSCKASGYTLTSYGISWVRQAPGQGLEWMGWISAYSGNTKYAQKFQGRVTMTTDTSTSTAYMELRSLRSDDTAVYYCARRQLALDYWGQGTLVTVSS
VL: EIVMTQSPATLSVSPGERATLSCRASQSISSNLAWYQQKPGQAPRLLIYGASTRATGIPARFSDNGSGTEFTLTISSLQSEDFAVYFCQQYDTWPLTFGGGTKVEIK
In the case of B11, in experiment [1], the “IL-17A/HFF bioassay IC50; 10. Subclone of (AMH19/AML19)” value was found to be 0.22 nM, the “IL-17A/HFF bioassay IC50; 11. Subclone of (AMH19/AML19)” value was 1.1 nM and the “IL-17A/HFF bioassay IC50; 12. Subclone of (AMH19/AML19)” value was 0.5 nM.

B12: AMH16/AML16 (antibody, IgG2, V domains shown)
VH: QVQLVQSGAEVKKPGASVKVSCKASGYTFTSYGISWVRQAPGQGLEWMGWISAYNGNTKYAQKLQGRVTMTTDTSTSTVYMELRSLRSDDTAVYYCARKQLVFDYWGQGTLVTVSS
VL: EIVMTQSPATLSVSPGERATLSCRASQSISTSLAWYQQKPGQAPRLLIYGTSTRATGIPARFSGSGSGTEFTLTISSLQSEDFAVYFCQQYDIWPLTFGGGTKVEIK
As for B12, in experiment [1], the “IL-17A/HFF bioassay IC50; 24. Subclone of (AMH16/AML16)” value turned out to be 1.6 nM, the “IL-17A/HFF bioassay IC50; 25. Subclone of (AMH16/AML16)” value came out at 2.3 nM and the “IL-17A/HFF bioassay IC50; 26. Subclone of (AMH16/AML16)” value was found to be 1.4 nM.

B13: AMH18/AML18 (antibody, IgG2, V domains shown)
VH: QVQLVQSGAEVKKPGASVKVSCKASGYSFTDYYMHWVRQAPGQGLEWMGWMHPNSGGTDLAQRFQGRVTMTRDTSISTAYMELSRLRSDDTAVYYCARGGYCSTLSCSFYWYFDLWGRGTLVTVSS
VL: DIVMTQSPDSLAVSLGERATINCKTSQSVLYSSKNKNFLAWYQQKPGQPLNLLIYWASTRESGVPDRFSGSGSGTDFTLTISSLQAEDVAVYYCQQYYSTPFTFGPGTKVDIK
notes: human monoclonal antibody from IgG2 XenoMouse mice; also called AM-18
Turning to B13, in experiment [1], the “IL-17A/HFF bioassay IC50; 14. Subclone of (AMH18/AML18)” value was determined as 0.44 nM, the “IL-17A/HFF bioassay IC50; 15. Subclone of (AMH18/AML18)” value came to 0.4 nM and the “IL-17A/HFF bioassay IC50; 16. Subclone of (AMH18/AML18)” value was found to be 0.17 nM. Further, the “EC50 entry; zero = binding ablated” value in the experiment with chimera L is 0 nM.

The values above are taken from US20120308566A1 (published 2012).
